Literature values in patent publication US20200179530A1, “TARGETED DELIVERY OF THERAPEUTIC AGENTS AND IMAGING REAGENTS TO PANCREATIC CANCER CELLS” (UNIVERSITY OF MIAMI, priority 2016, published 2020).

Substance	half-life (tissue)	half-life in tissue
native avidin: native avidin, comparator for AvidinOX half-life	about two	–
AvidinOX: avidin variant containing aldehyde groups, generated by ligand-assisted sugar oxidation of avidin by sodium periodate	–	weeks
